Assay results taken from patent US20240350646A1, “METHODS AND COMPOSITIONS FOR DELIVERY TO AND ACROSS THE BLOOD BRAIN BARRIER” (NUtech Ventures, priority 2021, published 2024).

T1: human claudin-9 (human, UniProt O95484 1-217, limits assumed)
T1 sequence (looked up): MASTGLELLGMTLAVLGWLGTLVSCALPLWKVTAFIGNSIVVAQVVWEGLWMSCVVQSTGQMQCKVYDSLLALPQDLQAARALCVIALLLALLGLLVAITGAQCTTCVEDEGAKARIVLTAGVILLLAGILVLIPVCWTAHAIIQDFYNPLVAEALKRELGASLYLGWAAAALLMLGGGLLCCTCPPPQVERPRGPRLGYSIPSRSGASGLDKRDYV

T2: recombinant human claudin-1 (human, UniProt O95832 1-211, limits assumed)
T2 construct: Expressed and purified as in Vecchio & Stroud 2019, in beta-DDM detergent; also called CLDN1
T2 sequence: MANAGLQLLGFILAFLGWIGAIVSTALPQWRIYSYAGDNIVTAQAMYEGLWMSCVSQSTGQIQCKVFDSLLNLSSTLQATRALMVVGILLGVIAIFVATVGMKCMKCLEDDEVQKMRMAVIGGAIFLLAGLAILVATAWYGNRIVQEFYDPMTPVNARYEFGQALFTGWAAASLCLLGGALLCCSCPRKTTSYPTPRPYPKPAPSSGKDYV


Tests used:
[1] = NP characterization: TEM particle diameter, DLS hydrodynamic size, zeta potential; type: physicochemical
Method: A high voltage transmission electron microscope (TEM) (Tecnai Osiris™, 200 kV) was used to measure particle diameters of PEG diacid coated Gd NPs. A copper grid (PELCO mesh size 400, TED PELLA, INC.) covered with an amorphous carbon membrane was placed onto a filter paper. Then, a sample solution diluted in triply distilled water was dropped over the copper grid by using a micropipette (Eppendorf, 2-20 μL). Dynamic light scattering (DLS) studies of the NPs were conducted using a Malvern Instruments Zetasizer Nano series instrument. Solutions of the NPs were prepared in DPBS (pH 7.4) at a concentration of 0.05 mM. The resulting solutions were filtered with 0.22 μm filters before the measurement. The NP concentration was determined by using an inductively coupled plasma mass spectrometer (ICPMS) (Agilent 7500 cx). To determine this, ˜0.5 mL of the NP solution was taken out and treated with HNO3 to dissolve nanoparticles in the solution completely. A Fourier transform-infrared (FT-IR) (Nicolet AVATAR 380 FT-IR) was used to verify the surface coating. To record the FT-IR absorption spectrum (400-4000 cm^−1), the powder sample was prepared. Peptide attachment to NPs was confirmed using BCA assay. Attaching efficiency was confirmed using the equation, Conjugation Efficiency of peptide (%)=Amount of peptide in NPs/Initial amount of peptide×100.

[2] = target: T1, human claudin-9; experiment: MST, sigmoidal dose-response fit (GraphPad Prism) of the FIG. 10A data; fit did not converge [panel B]
Method: FIG. 10C is a graph showing the binding of human claudins 4 and 9 to control NPs monitored using microscale thermophoresis. […] Data fitting for human claudins 3, 4 and 9 were performed using Graph Pad Prism.
Human claudin-1 was expressed and purified as reported previously (Vecchio & Stroud, 2019, PNAS USA, 116:17817-24). MST measurements were performed using a Monolith instrument (NanoTemper Technologies). For experiments with human claudin-1, the assay buffer contained 10 mM Tris HCl, pH 8.0, 100 mM NaCl, 4% glycerol, and 0.04% n-Dodecyl-β-D-Maltopyranoside (β-DDM). NPs and peptides were labeled with AF647 prior to MST analysis as described above. For the binding experiments, the concentration of human claudin-1 was varied from 2.2-73,500 nM and the AF647-labeled C1C2-NP was fixed at 70 nM, while the AF647 labeled NPs and AF647 labeled C1C2 peptide were fixed at 1 and 0.3 μM, respectively. Binding of the AF647 labeled C1C2-NP to human claudin-3, -4, and -9 were tested using 0.4-14000 nM, 0.8-28000 nM, and 0.6-20000 nM, respectively; with the AF647 labeled C1C2-NP fixed at 70 nM. […] All experiments were conducted at 23° C. using the nano-red channel of the Monolith instrument and the data were analyzed by using either Monolith analysis software or Graph Pad Prism, version 9 (Graph Pad Software, San Diego, California).

[3] = target: T2, recombinant human claudin-1; experiment: microscale thermophoresis, AF647 labeled C1C2-NP fixed at 70 nM, human claudin-1 titrated 2.2-73,500 nM
Method: For the binding experiments, the concentration of human claudin-1 was varied from 2.2-73,500 nM and the AF647-labeled C1C2-NP was fixed at 70 nM, while the AF647 labeled NPs and AF647 labeled C1C2 peptide were fixed at 1 and 0.3 μM, respectively. Binding of the AF647 labeled C1C2-NP to human claudin-3, -4, and -9 were tested using 0.4-14000 nM, 0.8-28000 nM, and 0.6-20000 nM, respectively; with the AF647 labeled C1C2-NP fixed at 70 nM. This assay buffer was similar, except β-DDM was replaced with 0.1% n-Undecyl-β-D-Maltopyranoside (beta-UDM). In order to check non-specific binding of β-DDM micelles to the AF647 labeled C1C2-NP, the concentration of beta-DDM was varied from 0.03-900 μM and the concentration of the AF647-labeled C1C2-NP was fixed at 1 μM. A similar experiment was performed wherein the concentration of beta-UDM was varied from 0.3-10,000 μM and the concentration of AF647-labeled control NP was fixed at 1 μM. […] All experiments were conducted at 23° C. using the nano-red channel of the Monolith instrument and the data were analyzed by using either Monolith analysis software or Graph Pad Prism, version 9 (Graph Pad Software, San Diego, California).
To assess the binding affinity of C1C2-NPs to human claudin-1, C1C2-NPs were labeled with AF647 and binding to recombinant human claudin-1 quantified using MST. […]

Row | Molecule | Zeta Potential, mV (with NPs) [1] [mV] | Hydrodynamic size (nm) ([1]; DLS, DPBS pH 7.4) | LogEC50 [2] | Kd [3] [µM]
1 | C1C2-NP: PEG diacid coated ultrasmall Gd NP conjugated with C1C2 peptide SSVSQSTGQIQSKVDSLLNLNSTQATR (SEQ ID NO: 6); claudin-1 targeted (Ac-SSVSQSTGQIQSKVDSLLNLNSTQATR-NH2; also: conjugated to PEG diacid coated ultrasmall Gd nanoparticle) | 7.81 ± 0.38 | 14.5 ± 0.13 | – | –
2 | Ac-SSVSQSTGQIQSKVDSLLNLNSTQATR-NH2 (not fully specified; also: conjugated by EDC-NHS chemistry to PEG diacid on Gd oxide nanoparticle surface (19 peptides per 3.5 nm particle), The protein part is the C1C2 peptide; the core is not a protein; also called C1C2-NPs; C1C2 NPs) [C1C2-NP (C1C2 peptide conjugated to PEG diacid coated ultrasmall Gd nanoparticles)] | – | – | -0.661 | 21
